{"source": "paper PMC8265735", "about": "(Biopolymers, 2021)", "key": {"[1]": {"molecular_target": "the molecule itself", "assay": "SAXS"}, "[2]": {"molecular_target": "the molecule itself", "assay": "SAXS", "remark": "listed apart in the source"}}, "note": "Read-outs that look alike come from different tables or passages of the source."}
{"protein": "Hemoglobin III (HbIII) from Lucina pectinata, oxy form (natural protein, Lucina pectinata (Phacoides pectinatus), UniProt P41262 1-153, looked up) MSSGLTGPQKAALKSSWSRFMDNAVTNGTNFYMDLFKAYPDTLTPFKSLFEDVSFNQMTDHPTMKAQALVFCDGMSSFVDNLDDHEVLVVLLQKMAKLHFNRGIRIKELRDGYGVLLRYLEDHCHVEGSTKNAWEDFIAYICRVQGDFMKERL", "values": [{"measurement": "stoichiometry N", "setting": "[1]", "value": 2}, {"measurement": "stoichiometry N", "setting": "[2]", "value": 4}]}
